Drawing on publication PMC9321280 (Nature Communications, 2022), this text covers Kd for 1 molecule.

This assay has as its target T1, GFP-fused TcsH CROPs (residues 1832–2618), His-tagged (Paeniclostridium sordellii, UniProt M9ZTT7 1832-2618).
T1 construct: source: Escherichia coli (pET28a vector), purified as His-tagged protein
T1 sequence: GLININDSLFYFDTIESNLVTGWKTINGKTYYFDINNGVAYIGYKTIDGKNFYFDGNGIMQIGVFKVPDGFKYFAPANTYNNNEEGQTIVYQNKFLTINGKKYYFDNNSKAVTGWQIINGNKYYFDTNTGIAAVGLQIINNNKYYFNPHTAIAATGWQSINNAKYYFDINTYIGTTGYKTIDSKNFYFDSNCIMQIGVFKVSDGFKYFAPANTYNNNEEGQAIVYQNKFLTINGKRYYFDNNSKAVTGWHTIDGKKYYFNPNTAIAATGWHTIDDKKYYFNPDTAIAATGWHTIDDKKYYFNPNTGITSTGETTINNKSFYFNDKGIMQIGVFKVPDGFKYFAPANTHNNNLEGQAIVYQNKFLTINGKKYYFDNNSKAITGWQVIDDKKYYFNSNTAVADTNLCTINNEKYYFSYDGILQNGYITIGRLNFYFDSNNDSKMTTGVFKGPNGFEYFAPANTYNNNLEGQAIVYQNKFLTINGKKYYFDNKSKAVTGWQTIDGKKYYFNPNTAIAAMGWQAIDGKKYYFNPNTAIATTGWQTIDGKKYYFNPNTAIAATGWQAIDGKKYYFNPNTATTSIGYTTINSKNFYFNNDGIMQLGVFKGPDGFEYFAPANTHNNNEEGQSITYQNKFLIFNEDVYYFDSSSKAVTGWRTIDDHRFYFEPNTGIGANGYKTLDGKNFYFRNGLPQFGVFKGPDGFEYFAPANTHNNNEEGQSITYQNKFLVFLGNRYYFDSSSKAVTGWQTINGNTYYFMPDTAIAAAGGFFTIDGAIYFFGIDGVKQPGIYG
In words: BLI. Particulars: both partners purified.

B1: Fc-tagged TMPRSS2^106-492/[change] (ectodomain of human TMPRSS2 with [change]) (Fc fusion)
chain: WKFMGSKCSNSGIECDSSGTCINPSNWCDGVSHCPGGEDENRCVRLYGPNFILQVYSSQRKSWHPVCQDDWNENYGRAACRDMGYKNNFYSSQGIVDDSGSTSFMKLNTSAGNVDIYKKLYHSDACSSKAVVSLRCIACGVNLNSSRQSQIVGGESALPGAWPWQVSLHVQNVHVCGGSIITPEWIVTAAHCVEKPLNNPWHWTAFAGILRQSFMFYGAGYQVEKVISHPNYDSKTKNNDIALMKLQKPLTFNDLVKPVCLPNPGMMLQPEQLCWISGWGATEEKGKTSEVLNAAKVLLIETQRCNSRYVYDNLITPAMICAGFLQGNVDSCQGDSGGPLVTSKNNIWWLIGDTSWGSGCAKAYRPGVYGNVMVFTDWIYRQMRADG
B1 displayed a Kd of around 5.23 nM.
